Laboratory results as given in patent US20110190477A1 (G2 INFLAMMATION, published 2011).
No end group written: not given here. *: point of attachment. Biotin = O=C1N[C@H]2[C@H](CS[C@H]2CCCCC(=O)*)N1

Key:
[1] = molecular target: T1, peptide 9 (12 mer from the 2nd extracellular loop of human C5aR) (human); assay: peptide ELISA, biotin peptide on streptavidin plate
T1 construct: worked out from 22 12 mers offset by one over 173-205; also called peptide no
T1 peptide: Biotin-SGSGYFPPKVLCGVDY
Description: (§1) A set of 22 overlapping peptides (12 mers), each offset by 1 residue from the next, spanning the second extracellular loop (3rd extracellular domain) of human C5aR was synthesised (Mimotopes, Melbourne). Each peptide was made with a biotin group and 4-amino acid linker (SGSG) at its N-terminus. One peptide synthesised, no. 23, was a 33 mer, representing the full length of the 2nd extracellular loop of hC5aR (residues 173-205 from SEQ ID NO:37), also had biotin-SGSG at the N-terminus.
(§2) The experiment was conducted by binding the peptides to a 384-well streptavidin-coated plate then incubating the antibodies with the peptides and detecting bound antibody with an anti-mouse IgG conjugated to horse radish peroxidase (HRP) as follows. Each peptide was dissolved in 200 μl of 60% DMSO to a concentration of 10 mg/ml. Peptides were further diluted 1:1000 to a working strength of 10 μg/ml with PBS/Tween 20/azide solution (0.1% w/v sodium azide in PBS/0.05% Tween 20).
(§3) A 384 well streptavidin-coated plate (Nunc) was blocked with 20 μl of blocking buffer (1% w/v BSA in PBS) per well. The plate was washed 4 times with PBS/Tween20 buffer (0.1% v/v Tween 20 in PBS). 20 μl of diluted peptide solution was transferred into a well and the plate incubated for 1 hour at room temperature. After washing the plate 4 times (as above) 20 μl antibody (0.5, 1, 1.25, 2.5 or 5 μg/ml) was added to the well and the plate was incubated for 1 hour at 20° C. The plate was washed 4 times as above then 20 μlHRP-conjugated anti-mouse IgG (1:5000 dilution in PBS/Tween 20) was added to each well. After a 1 hour incubation at room temperature the plate was washed 3 times (as above) then twice with PBS to remove traces of Tween. The presence of peroxidase was detected by adding 20 μl of freshly prepared TMB Substrate reagent (BD Opt EIA) to each well and incubating at room temperature for 20 min. Finally the plate was read at 650 nm/450 nm.

[2] = molecular target: T2, peptide 13 (12 mer from the 2nd extracellular loop of human C5aR) (human); assay: as above
T2 construct: worked out from 22 12 mers offset by one over 173-205; also called peptide no; 13
T2 peptide: Biotin-SGSGKVLCGVDYSHDK
Description: as §1, §2, §3

[3] = molecular target: T3, peptide 15 (12 mer from the 2nd extracellular loop of human C5aR) (human); assay: as above
T3 construct: worked out from 22 12 mers offset by one over 173-205; also called peptide no; 15
T3 peptide: Biotin-SGSGLCGVDYSHDKRR
Description: as §1, §2, §3

[4] = molecular target: T4, peptide 16 (12 mer from the 2nd extracellular loop of human C5aR) (human); assay: as above
T4 construct: worked out from 22 12 mers offset by one over 173-205; also called peptide no; 16
T4 peptide: Biotin-SGSGCGVDYSHDKRRE
Description: as §1, §2, §3

[5] = molecular target: T5, peptide 18 (12 mer from the 2nd extracellular loop of human C5aR) (human); assay: as above
T5 construct: worked out from 22 12 mers offset by one over 173-205; also called peptide no; 18
T5 peptide: Biotin-SGSGVDYSHDKRRERA
Description: as §1, §2, §3

[6] = molecular target: T6, peptide 20 (12 mer from the 2nd extracellular loop of human C5aR) (human); assay: as above
T6 construct: worked out from 22 12 mers offset by one over 173-205; also called peptide no; 20
T6 peptide: Biotin-SGSGYSHDKRRERAVA
Description: as §1, §2, §3

[7] = molecular target: T7, peptide 21 (12 mer from the 2nd extracellular loop of human C5aR) (human); assay: as above
T7 construct: worked out from 22 12 mers offset by one over 173-205; also called peptide no; 21
T7 peptide: Biotin-SGSGSHDKRRERAVAI
Description: as §1, §2, §3

[8] = molecular target: T8, human C5a receptor (human, UniProt P21730 1-350); assay: 125I-C5a displacement, L1.2/hC5aR transfectants
T8 construct: On human neutrophils, L1.2/hC5aR transfectants or neutrophils of hC5aR knock-in mice; also called hC5aR; C5aR1
T8 chain: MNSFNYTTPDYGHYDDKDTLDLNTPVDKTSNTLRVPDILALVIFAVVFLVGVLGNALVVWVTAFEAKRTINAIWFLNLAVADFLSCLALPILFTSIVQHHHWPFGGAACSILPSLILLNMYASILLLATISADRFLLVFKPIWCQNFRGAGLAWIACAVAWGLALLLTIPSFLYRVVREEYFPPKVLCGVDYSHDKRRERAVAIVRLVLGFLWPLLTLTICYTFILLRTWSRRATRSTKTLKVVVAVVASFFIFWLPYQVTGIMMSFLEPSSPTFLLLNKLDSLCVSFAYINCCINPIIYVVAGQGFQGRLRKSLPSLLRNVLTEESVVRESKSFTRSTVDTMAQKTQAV
Procedure: The ability of humanized Abs to inhibit ¹²⁵I-labelled C5a binding to L1.2 cells transfected with hC5aR gene or human neutrophils was tested as described below. Recombinant human C5a was obtained from Sigma Chemical Co. (St. Louis, Mo.). ¹²⁵I-Bolton-Hunter-labelled complement C5a was purchased from NEN-Dupont (Boston, Mass.), with a specific activity of 2200 Ci/mM. Briefly, L1.2/hC5aR stable transfectants were grown for several days prior to an experiment then treated overnight with 5 mM butyric acid to stimulate hC5aR expression prior to the binding assay. Human neutrophils were purified from venous blood collected from healthy volunteers. Neutrophils were separated from other leukocytes by percoll density centrifugation followed by a red blood cell lysis step. Both cell types were washed once in PBS and resuspended in binding buffer (50 mM Hepes, pH 7.5, 1 mM CaCl₂, 5 mM MgCl₂, 0.5% BSA) at a concentration of 1×10⁷/ml. Aliquots of 40 μl (4×10⁵ cells) were dispensed into 96 well microtitre plates, followed by the addition of cold competitor (antibody or human C5a). Cells and cold competitor were incubated for 15 min at room temperature before-radiolabelled C5a was added to a final concentration of 0.4 nM. The final reaction volume was 120 μl. After 60 min incubation at room temperature, the cells were washed three times with 150 μl of binding buffer containing 0.15 M NaCl. Cell pellets were then counted on a TopCount Scintillation Counter (Packard). Samples were assayed in triplicate at each of 6-8 concentrations. Each antibody was tested in at least 3 separate assays. The number of counts in each sample was expressed as a percentage of the maximum ¹²⁵I-C5a binding observed in wells with no added cold competitor after subtraction of background.
Results of this analysis (the displacement curves) for each of the humanized antibodies compared to the mouse antibody 7F3 in human neutrophils and L1.2/hC5aR transfectants are given in FIGS. 11 and 12 respectively. […] These values were obtained using Graphpad Prism software fitting the data to the non-linear equation for one site competition.

B1: mouse anti-C5aR monoclonal antibody 7F3 (antibody, V domains shown)
VH: QVQLQQSGPELVKPGASVKISCKASGYAFSNSWMNWVKQRPGKGLEWIGRIYPGDGDTKYNGKFKGKATLTADKSSSTAYMQLSSLTSEDSAVYFCARFLLISTVTAVDYWGQGTTLTVSS
VL: DVVMTQSPLSLPVSLGNQASISCRSSQSLVHSNGNTYLHWYLQKPGQSPKLLIYKVSNRFSGVPDRFSGSGSGTDFSLKISRVEAEDLGVYFCSQSTLVPLTFGAGTKLELK
notes: Mouse monoclonal from hybridoma ECACC 00110609; also called m7F3; mouse 7F3
B1: no binding [1]; no binding [2]; no binding [3]. B1: no binding [4]; no binding [5]; no binding [6]. For the same binder, the binding result [7] was “no binding” and the EC50 [8] was 510 pM.

B2: humanized anti-C5aR antibody hAb-J (antibody, human IgG4 S228P, kappa)
light: DVVMTQSPLSLPVTLGEPASISCRSSQSLVHSNGNTYLHWYLQKPGQSPQLLIYKVSNRFSGVPDRFSGSGSGTDFTLKISRVEAEDVGVYFCSQSTLVPLTFGQGTKLEIKTVAAPSVFIFPPSDEQLKSGTASVVCLLNNFYPREAKVQWKVDNALQSGNSQESVTEQDSKDSTYSLSSTLTLSKADYEKHKVYACEVTHQGLSSPVTKSFNRGEC
heavy: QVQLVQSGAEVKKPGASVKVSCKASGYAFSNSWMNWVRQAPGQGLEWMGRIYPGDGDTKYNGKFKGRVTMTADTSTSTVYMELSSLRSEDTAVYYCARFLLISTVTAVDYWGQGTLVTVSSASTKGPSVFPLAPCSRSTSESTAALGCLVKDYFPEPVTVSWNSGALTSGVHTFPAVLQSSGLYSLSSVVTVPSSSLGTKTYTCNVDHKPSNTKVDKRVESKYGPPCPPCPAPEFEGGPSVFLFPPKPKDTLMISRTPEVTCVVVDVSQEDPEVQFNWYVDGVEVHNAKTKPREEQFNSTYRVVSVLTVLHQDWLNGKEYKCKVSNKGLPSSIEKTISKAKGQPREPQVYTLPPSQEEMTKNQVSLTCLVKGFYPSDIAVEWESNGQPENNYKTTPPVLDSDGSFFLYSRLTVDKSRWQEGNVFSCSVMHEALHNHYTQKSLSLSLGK
notes: also called antibody J
B2: no binding [1]; no binding [2]; no binding [3]. B2: no binding [4]; no binding [5]; no binding [6]. For the same binder, the binding result [7] was “no binding” and the EC50 [8] was 930 pM.

B3: humanized anti-C5aR antibody hAb-Q (antibody, human IgG4 S228P, kappa)
light: DVVMTQSPLSLPVTLGEPASISCRSSQSLVHSNGNTYLHWYLQKPGQSPQLLIYKVSNRFSGVPDRFSGSGSGTDFTLKISRVEAEDVGVYFCSQSTLVPLTFGQGTKLEIKRTVAAPSVFIFPPSDEQLKSGTASVVCLLNNFYPREAKVQWKVDNALQSGNSQESVTEQDSKDSTYSLSSTLTLSKADYEKHKVYACEVTHQGLSSPVTKSFNRGEC
heavy: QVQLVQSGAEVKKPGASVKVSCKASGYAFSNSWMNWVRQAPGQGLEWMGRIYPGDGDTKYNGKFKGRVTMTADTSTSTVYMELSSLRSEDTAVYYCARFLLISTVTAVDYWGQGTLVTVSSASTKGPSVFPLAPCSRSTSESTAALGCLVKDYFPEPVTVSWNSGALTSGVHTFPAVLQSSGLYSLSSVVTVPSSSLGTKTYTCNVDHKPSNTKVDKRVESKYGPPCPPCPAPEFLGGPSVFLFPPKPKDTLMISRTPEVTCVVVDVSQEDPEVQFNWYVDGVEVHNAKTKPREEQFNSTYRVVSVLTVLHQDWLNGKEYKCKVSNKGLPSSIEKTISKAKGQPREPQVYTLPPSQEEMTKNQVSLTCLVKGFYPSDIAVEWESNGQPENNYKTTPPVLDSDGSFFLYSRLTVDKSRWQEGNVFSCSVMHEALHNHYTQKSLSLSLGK
notes: IgG4 with the Ser228Pro mutation; also called antibody Q; anti-C5aR ab
B3: no binding [1]; no binding [2]; no binding [3]. B3: no binding [4]; no binding [5]; no binding [6]. For the same binder, the binding result [7] was “no binding” and the EC50 [8] was 860 pM.
